Laboratory results taken from PMC11274882, “RNA Binding Properties of SOX Family Members”.

Assays:
SOX2 HMG-box [1] = biological target: T1, SOX2 HMG-box (UniProt P48431 39-127); assay: fluorescence polarisation; FP: 50 mM Tris, 125 mM NaCl, pH 8.0, 80 nM RNA, temperature not stated; EMSA: equal volumes of 100 uM protein and ssDNA, room temperature 15 min, 1.5% agarose; conditions: protein: recombinant; label: 3' FAM; hairpin
SOX17 HMG-box WT [2] = biological target: T2, SOX17 HMG-box WT (UniProt Q9H6I2 66-145); assay: as above; conditions: protein: recombinant; tags: 6xHis; label: 3' FAM; hairpin
T2 sequence (Q9H6I2 66-145): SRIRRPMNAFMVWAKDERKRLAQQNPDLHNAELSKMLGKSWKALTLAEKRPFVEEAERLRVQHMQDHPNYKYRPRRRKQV

SOX17 dC HMG-box [3] = biological target: T3, SOX17 dC HMG-box (UniProt Q9H6I2 66-137); assay: as above; conditions: protein: recombinant; tags: 6xHis; label: 3' FAM; hairpin
T3 sequence (Q9H6I2 66-137): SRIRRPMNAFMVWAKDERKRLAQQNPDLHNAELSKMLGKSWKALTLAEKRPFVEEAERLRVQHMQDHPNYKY

SOX30 HMG-box [4] = biological target: T4, SOX30 HMG-box (UniProt O94993 335-423); assay: as above; conditions: protein: recombinant; tags: 6xHis; label: 3' FAM; hairpin
T4 sequence: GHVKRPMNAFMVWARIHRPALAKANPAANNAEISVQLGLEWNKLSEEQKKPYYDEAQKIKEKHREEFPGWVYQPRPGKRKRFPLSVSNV

SOX17 dCN HMG-box [5] = biological target: T5, SOX17 dCN HMG-box (UniProt Q9H6I2 74-137); assay: as above; conditions: protein: recombinant; tags: 6xHis; label: 3' FAM; hairpin
T5 sequence (Q9H6I2 74-137): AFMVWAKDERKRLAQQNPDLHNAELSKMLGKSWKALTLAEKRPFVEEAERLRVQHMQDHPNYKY

SRY HMG-box = SRY HMG-box (UniProt Q05066 58-140); assay: EMSA; FP: 50 mM Tris, 125 mM NaCl, pH 8.0, 80 nM RNA, temperature not stated; EMSA: equal volumes of 100 uM protein and ssDNA, room temperature 15 min, 1.5% agarose; conditions: protein: recombinant; tags: 6xHis; named 60-mer; length as printed may differ
Sequence of SRY HMG-box (Q05066 58-140): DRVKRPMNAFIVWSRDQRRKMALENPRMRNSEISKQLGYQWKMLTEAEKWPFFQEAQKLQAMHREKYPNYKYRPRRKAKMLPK

SOX17 HMG-box WT [6] = biological target: T2, SOX17 HMG-box WT; assay: as above; conditions: protein: recombinant, tags: 6xHis
SOX11 HMG-box = SOX11 HMG-box (UniProt P35716 47-135); assay: as above; conditions: protein: recombinant; tags: 6xHis; named 60-mer; length as printed may differ
Sequence of SOX11 HMG-box (P35716 47-135): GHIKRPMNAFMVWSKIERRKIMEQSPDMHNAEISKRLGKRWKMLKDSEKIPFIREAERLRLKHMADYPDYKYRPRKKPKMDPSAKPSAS

SOX15 HMG-box = SOX15 HMG-box (UniProt O60248 47-135); assay: as above; conditions: protein: recombinant; tags: 6xHis; named 60-mer; length as printed may differ
Sequence of SOX15 HMG-box (O60248 47-135): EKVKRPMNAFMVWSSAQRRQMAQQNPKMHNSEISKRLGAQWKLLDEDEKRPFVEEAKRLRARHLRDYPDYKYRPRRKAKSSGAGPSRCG

SOX6 HMG-box = SOX6 HMG-box (UniProt P35712 619-707); assay: as above; conditions: protein: recombinant; named 60-mer; length as printed may differ
Sequence of SOX6 HMG-box (P35712 619-707): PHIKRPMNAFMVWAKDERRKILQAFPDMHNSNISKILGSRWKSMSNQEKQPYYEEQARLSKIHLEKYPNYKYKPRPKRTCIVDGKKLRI

SOX30 HMG-box [7] = biological target: T4, SOX30 HMG-box; assay: as above; conditions: protein: recombinant; tags: 6xHis; named 60-mer; length as printed may differ
SOX9 HMG-box = SOX9 HMG-box (UniProt P48436 103-183); assay: as above; conditions: protein: recombinant; tags: 6xHis; named 60-mer; length as printed may differ
Sequence of SOX9 HMG-box (P48436 103-183): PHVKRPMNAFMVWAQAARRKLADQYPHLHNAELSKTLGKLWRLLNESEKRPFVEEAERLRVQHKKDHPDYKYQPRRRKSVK

SOX2 HMG-box [8] = biological target: T1, SOX2 HMG-box; assay: EMSA; complex stays in well; FP: 50 mM Tris, 125 mM NaCl, pH 8.0, 80 nM RNA, temperature not stated; EMSA: equal volumes of 100 uM protein and ssDNA, room temperature 15 min, 1.5% agarose; conditions: protein: recombinant; named 60-mer; length as printed may differ
SOX21 HMG-box = SOX21 HMG-box (UniProt Q9Y651 6-94); assay: as above; conditions: protein: recombinant; tags: 6xHis; named 60-mer; length as printed may differ
Sequence of SOX21 HMG-box (Q9Y651 6-94): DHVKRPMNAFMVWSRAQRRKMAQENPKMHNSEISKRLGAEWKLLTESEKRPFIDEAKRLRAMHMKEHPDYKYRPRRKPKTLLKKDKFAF

SOX17 HMG-box WT [9] = biological target: T2, SOX17 HMG-box WT; assay: NMR HSQC titration; 100 uM protein, 25-100 uM ssDNA; shifts at R125-R138, I68, A74, M76, E97, K100, W106; FP: 50 mM Tris, 125 mM NaCl, pH 8.0, 80 nM RNA, temperature not stated; EMSA: equal volumes of 100 uM protein and ssDNA, room temperature 15 min, 1.5% agarose; conditions: protein: recombinant; tags: 6xHis
SOX17 dC HMG-box [10] = biological target: T3, SOX17 dC HMG-box; assay: EMSA; FP: 50 mM Tris, 125 mM NaCl, pH 8.0, 80 nM RNA, temperature not stated; EMSA: equal volumes of 100 uM protein and ssDNA, room temperature 15 min, 1.5% agarose; conditions: protein: recombinant; tags: 6xHis
SOX17 dN HMG-box = SOX17 dN HMG-box (UniProt Q9H6I2 74-145); assay: as above; conditions: protein: recombinant; tags: 6xHis
Sequence of SOX17 dN HMG-box (Q9H6I2 74-145): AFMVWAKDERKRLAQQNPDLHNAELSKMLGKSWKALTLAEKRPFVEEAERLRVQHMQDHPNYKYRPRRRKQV

SOX17 dCN HMG-box [11] = biological target: T5, SOX17 dCN HMG-box; assay: as above; conditions: protein: recombinant; tags: 6xHis

T1 sequence (P48431 39-127): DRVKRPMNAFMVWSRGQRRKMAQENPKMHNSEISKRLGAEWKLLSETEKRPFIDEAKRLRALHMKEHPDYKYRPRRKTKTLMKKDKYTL

Binder: GGUCGCCGUGGCCACUUCGAAAGGGGUGGAAAGGGCGACC (structured_RNA) [40-mer RNA, ES2 lncRNA hairpin Loop A]
- Kd (SOX2 HMG-box [1]): ~57 nM
- Kd (SOX17 HMG-box WT [2]): ~327 nM
- binding result (SOX17 dC HMG-box [3]): no binding
- binding result (SOX30 HMG-box [4]): no binding
- binding result (SOX17 dCN HMG-box [5]): no binding

B1: 60-mer ssDNA (ssDNA)
DNA: GTTAGAGGTGCCCCACAGGCGGCGGTTAGTATTCCCCGCCGCCTGGGGCACCGGGGCAC
- binding result (SRY HMG-box): binds
- binding result (SOX17 HMG-box WT [6]; named 60-mer, length as printed may differ): binds
- binding result (SOX11 HMG-box): binds
- binding result (SOX15 HMG-box): binds
- binding result (SOX6 HMG-box): binds
- binding result (SOX30 HMG-box [7]): no binding
- binding result (SOX9 HMG-box): binds
- binding result (SOX2 HMG-box [8]): binds
- binding result (SOX21 HMG-box): binds

Binder: ATCGATCGATCG (ssDNA) [12-mer ssDNA]
- binding result (SOX17 HMG-box WT [9]): binds

Binder: CCCCATCTTAGTATATTAGTTA (ssDNA) [22-mer ssDNA]
- binding result (SOX17 HMG-box WT [6]): binds
- binding result (SOX17 dC HMG-box [10]): no binding
- binding result (SOX17 dN HMG-box): binds
- binding result (SOX17 dCN HMG-box [11]): no binding
